{"source": "paper PMC4968207", "key": {"[1]": {"target": "Germline κI O18/O8 light chain variable domain (VL) (human)"}, "[2]": {"target": "Germline κI O18/O8 light chain variable domain (VL) (human)", "remark": "listed apart in the source"}}, "data": [{"substance": "Germline κI O18/O8 light chain variable domain (VL) (domain or fragment)", "values": [{"measurement": "t50 of de novo (nonseeded) ThT fibril formation of 20 µM κI, pH 2.0, 37 °C", "setting": "[1]", "result": 266, "unit": "h"}, {"measurement": "yield of de novo fibril formation (percent of the initial monomer in fibrils)", "setting": "[2]", "result": 93.4, "unit": "%"}]}]}
